Experiment [1] concerns the target T1, PTB domain of Shc (human).
T1 sequence (P29353 whole entry, looked up): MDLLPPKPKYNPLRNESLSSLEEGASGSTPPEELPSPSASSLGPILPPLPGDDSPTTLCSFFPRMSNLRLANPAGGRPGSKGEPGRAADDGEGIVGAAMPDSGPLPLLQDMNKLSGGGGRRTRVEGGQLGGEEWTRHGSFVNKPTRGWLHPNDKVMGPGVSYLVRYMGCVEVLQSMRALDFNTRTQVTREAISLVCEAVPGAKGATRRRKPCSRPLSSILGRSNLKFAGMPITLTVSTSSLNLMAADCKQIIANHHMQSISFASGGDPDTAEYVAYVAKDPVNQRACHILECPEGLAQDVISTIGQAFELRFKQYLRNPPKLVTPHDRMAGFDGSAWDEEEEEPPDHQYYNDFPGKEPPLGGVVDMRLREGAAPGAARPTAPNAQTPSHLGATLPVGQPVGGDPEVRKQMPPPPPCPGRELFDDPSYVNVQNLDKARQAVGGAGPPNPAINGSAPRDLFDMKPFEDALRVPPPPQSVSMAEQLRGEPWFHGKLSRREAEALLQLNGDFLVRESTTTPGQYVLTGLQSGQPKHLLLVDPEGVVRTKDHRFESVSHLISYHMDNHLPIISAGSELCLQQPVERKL
In words: peptide or protein array.

The target of experiment [2] is T2, core domain of Signal Transducer and Activator of Transcription 1 (STAT1) (human).
T2 chain: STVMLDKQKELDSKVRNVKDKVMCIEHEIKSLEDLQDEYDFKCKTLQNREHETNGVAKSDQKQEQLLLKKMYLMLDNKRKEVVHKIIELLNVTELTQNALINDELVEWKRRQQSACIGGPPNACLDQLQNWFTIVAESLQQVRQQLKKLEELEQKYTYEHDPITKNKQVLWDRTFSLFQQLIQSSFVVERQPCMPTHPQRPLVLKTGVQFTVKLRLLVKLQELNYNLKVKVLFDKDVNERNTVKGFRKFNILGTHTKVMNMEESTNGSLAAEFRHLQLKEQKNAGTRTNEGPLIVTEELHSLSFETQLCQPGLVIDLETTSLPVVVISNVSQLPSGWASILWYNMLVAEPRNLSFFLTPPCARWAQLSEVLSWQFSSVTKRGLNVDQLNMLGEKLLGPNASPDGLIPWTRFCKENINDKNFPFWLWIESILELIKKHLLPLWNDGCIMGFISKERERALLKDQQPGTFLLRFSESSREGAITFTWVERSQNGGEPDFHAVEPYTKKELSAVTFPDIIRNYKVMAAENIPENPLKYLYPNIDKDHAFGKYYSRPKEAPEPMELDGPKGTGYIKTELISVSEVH
In words: peptide or protein array.

Non-standard residues stand in square brackets, D forms with d. No end group written: not given here. pY = N[C@@H](Cc1ccc(OP(=O)(O)O)cc1)C(=O)O

Take {5(6)‑TAMRA}-AKKAFDNPD[pY]WNHSLPPD [ErbB4-1242 phosphopeptide]: the Kd in experiment [1] is less than 1000 nM.
Still for that read-out and setting: for {5(6)‑TAMRA}-DLQALDNPE[pY]HNASNGPD [ErbB4-1188 phosphopeptide] the value was less than 1000 nM.
Molecule {5(6)‑TAMRA}-QAFNIPPPI[pY]TSRARIDD [ErbB4-1035 phosphopeptide] yielded a Kd in experiment [2] of 1550 nM.
In the case of {5(6)‑TAMRA}-VQEDSSTQR[pY]SADPTVFD [ErbB4-1128 phosphopeptide], in experiment [2], the Kd was 2060 nM.

The record behind these values is paper PMC2606095 (Chemistry & biology, 2008).
